Test results taken from the DeepSol protein solubility set.

Experiment: soluble on expression in E. coli; label from the status in PepcDB or PDB records

| Sequence | soluble on expression in E. coli |
| --- | --- |
| MISVDTMTNASSTEGISLHHISVSDLDNNCYLLTTESDEGTQGLLIDAADNAPALLDLAESAGARITAVVTTHRHFDHVRALEDVLDTTKATHFASLGDSPRLPRSADTTLGEGDTLRWAGHNLRAHILRGHTQEGLALSIKIDGIYHLFVGDSLFPRGVGKTSTPEEFNQLLSDVKTRLFDVYPDTAVVHPGHGKPTTLGTERPHLEQWRQRGW | not soluble |
| MITDCCPGFGSVAKYIAVSMLEASFDVASMAKTSTKVFILEVMGRHAGWIAAAGGLASNEDHEVPIIILFPEVTFDQEKFLAKTDHYVKEYGYCTVVVSEGVKGTDGKFLSDQGLRDAFGHAQLGGVAPVIANIVKNGLGLEHHHHHH | soluble |
| MITGETEPACVEDASQLAEQRNGAPVMEAGCAAVPVEANATKRGYWRQRTLHSWFIGRKPQRTCIAVDIDEVLAFFVPELCAFHNKRYGTRLQATDFHSYRFAEVWGGTDTDAIRKVHEFFRTPAFQELQPIPGAKQVLQSRLARFRFVVVTSRQLVIEQETRAWLDKHFSGIFEAIYLGNQWALHPNGEHGTGVGSAAQEPQRLFANRRRKSQVCKACGAAVLIDDLPHNLLDCSENGVFGVLFDFQGQYGWSKSPAFESKDIAVVHSWEAVGELLDRL | not soluble |
| MITIKKQEIVKLEDVLHLYQAVGWTNYTHQTEMLEQALSHSLVIYLALDGDAVVGLIRLVGDGFSSVFVQDLIVLPSYQRQGIGSSLMKEALGNFKEAYQVQLATEETEKNVGFYRSMGFEILSTYDCTGMIWINREK | soluble |
| MITKDVKEQLIQVSGPENFDDSNAGRLVYSYDATPQYQSMPDAVIAPRNTDEISRILTICSEHRVPIVPRGSGTNLCGGTCPTEGGLVLLFKHMNQILEIDEENLTATVQPGVITLDMIRAVESKGLFYPPDPSSMKISTIGGNINENSGGLRGLKYGVTRDYVIGLEVVLANGDIIRTGGKLAKDVAGYDLTRLFVGSEGTLGIVTEAIVKLVPKPETKKTLLALYENIDAAAQTVSDIIAAKIIPATLEFLDQPTLLVIEDYAKIGLPTSAKAVLLIEQDGPFETVERDMEKIEAICKKGDAVSVQTAQTEEEAFALTEARRSALSALARLKPTTILEDATVPRSEIANMVKAINDIAAKYDISICTFGHAGDGNLHPTCTTDIRNKDEMERVEQAFAEIFEKAIELGGTITGEHGVGEMKAPYLEMKLKKEGIDAMKALKAAFDPRNILNPGKMFAKDARKR | not soluble |
| MITLTLFGQETSSSALIFAYCNAATGSNTMSTDCRRRLNKDLYLLIPEHPMNPKQFERWKSQLSQLSPQQLRALQGEIDRSLHQNESALLTEEERDAIAHLFS | not soluble |
| MITMLERVPTGIPGFDELCSGGLLRDRSYLVSGPSGSGKTIFAMQYLVNGIEKYNEPGVFVATEERPQHLREHFLTFGWDLEKYEDENMLAIVDATSTKIGLPSDERYIDVRPFDTRSLLDQIITIQDEIGARRAVVDSTTSIGFTISDPAKFRVELLKISTTMEILGLTSILTCEVVEGGGDKISRFGVENFVVEGTIVLYYTRIENTRVRSIEIFKMRGTNHSSKIHPFEITENGIVVYSKEEVFA | not soluble |
| MITVFGLKSKLAPRREKLAEVIYNSLHLGLDIPKGKHAIRFLCLEKEDFYYPFDRSDDYTVIEINLMAGRMEGTKKRLIKMLFSELEYKLGIRAHDVEITIKEQPAHCWGFRGMTGDEARDLDYDIYV | soluble |
| MITWADALGFRLVVVDSLGSADQEVVEAEDGEPFERHEMRRLTRPLWTRRKARKLSQGDLALLLGVSRASVQRWEDADKFPRPIALIAWAGRLECSVELDRVTSENDRPQPGREEA | not soluble |
| MIVDFYFDFLSPFSYLANQRLSKLAQDYGLTIRYNAIDLARVKIAIGNVGPSNRDLKVKLDYLKVDLQRWAQLYGIPLVFPANYNSRRMNIGFYYSGAEAQAAAYVNVVFNAVWGEGIAPDLESLPALVSEKLGWDRSAFEHFLSSNAATERYDEQTHAAIERKVFGVPTMFLGDEMWWGNDRLFMLESAMGRLCRQNADLSS | soluble |
| MIVILDNGGQYVHRIHRSLKYIGVSSKIVPNTTPLEEIESNKEVKGIILSGGPDIEKAKNCIDIALNAKLPILGICLGHQLIALAYGGEVGRAEAEEYALTKVYVDKENDLFKNVPREFNAWASHKDEVKKVPEGFEILAHSDICQVEAMKHKTKPIYGVQFHPEVAHTEYGNEILKNFCKVCGYKFE | soluble |
| MIVLVTGATAGFGECITRRFIQQGHKVIATGRRQERLQELKDELGDNLYIAQLDVRNRAAIEEMLASLPAEWCNIDILVNNAGLALGMEPAHKASVEDWETMIDTNNKGLVYMTRAVLPGMVERNHGHIINIGSTAGSWPYAGGNVYGATKAFVRQFSLNLRTDLHGTAVRVTDIEPGLVGGTEFSNVRFKGDDGKAEKTYQNTVALTPEDVSEAVWWVSTLPAHVNINTLEMMPVTQSYAGLNVHRQ | soluble |
| MIVRGGGDLATGVIQKLWHVGFKILVLETECPLAIRRTVSVCDAIFQKEQRVEDLVAVRITSLKDCAKCWQQNKLPVFVDQTASAIQQLKPLIVIDAILAKKNLGTHRGMAPITIALGPGFSAPQDVDVVIETMRGHRLGRLYFEGTALPNTGIPGEIGGKSAERVVHAPASGQVTHLKNIGDLVLKGEALFLIDQVPVYSPLTGTLRGLISEKVTCYQGLKCADVDPRPVEKVDCLTISDKARALGGAVLEAIFMIGRRKNVL | not soluble |
| MIYLFTGNMGTGKTSRVVSMILNNEDGLFKMKLEDGTEVDRPLYFCHIDGLDKRQFKAHELTEEQIMSAPLRDVIPEGAVLIVDEAHYTYPVRAAGRPVPPYIQELTELRHHGHTVILMTQHPSQLDIFVRNLVSKHVHLERKAIGMKQYYWYKCVTSLDNPAGVSGVEVASWKPPKEAFKYYKSASQHQ | not soluble |
| MIYPDETMLYAPVEWHDCSEGYTDIRYEKSTDGIAKITINRPQVRNAFRPLTVKEMIQALADARYDDNVGVIILTGEGDKAFCAGGDQKVRGDYGGYQDDSGVHHLNVLDFQRQIRTCPKPVVAMVAGYSIGGGHVLHMMCDLTIAAENAIFGQTGPKVGSFDGGWGASYMARIVGQKKAREIWFLCRQYDAQQALDMGLVNTVVPLADLEKETVRWCREMLQNSPMALRCLKAALNADCDGQAGLQELAGNATMLFYMTEEGQEGRNAFNQKRQPDFSKFKRNP | not soluble |
| MKAAHIIDEARLGIMLNDLRLPTIKTLWPQFAEQADKEGWPAARFLSAIAEHELAERDRRRVERHLAEAHLPPGKTLDSFAFDAVPMVSKAQVMAMTAGDSWLAKGANILLFGPPGGGKSHLAAAIGLALIENGWRVLFTRTTDLVQKLQVARRELQLESAIAKLDKFDLLILDLEHHHHHH | not soluble |
| MKAFISENVRGIYAFDENGNLIEKRYFTDKPEKVLDQLLKGEITKDLEELLNSLKEKGYDEFVFEHPELSRRAKELGFSATTEFPNIAGERLRSNPEEFLGENWFEEYYKVGVALTRMRIQEQSGARDKMVIQAIEALDDVDKVINLLVARLREWYSLHFPELDELLPKHPQYVAFVKTVGHRDNINEEVLRELGLSEEKIKKILEAKEKTMGAWMDQTDIEVVRQLAEEIDRLYQLRKKLEDYIDRAMDDVAPNLKALVGAKLAARLISLAGGLRELAMMPSSTIQVLGAEKALFRHLRTGAKPPKHGVIYQYPAINRSPWWQRGKIARALAGKLAIAARVDYFSGEYIAEELKKELEARIREIKEKYPKPPKRKREERKGKKPWKKDKKKKKKKEKPRRRAAALEHHHHHH | not soluble |
| MKAHVLFSGGKDSSLSAIILHNLGYEIQLVTVNFGVLDSYLHAEETAKIIGYSHKVELIDKELIEKSVDMILKDGYPGNGIQFVHKQVLEIISEKYDVIADGTRRDDRVPRLDHSELQSLEMRKNIQYVTPLMGFGHKTLRNLVNNYFIISEKESEELLKSDYETEIRELIRQRGIDPLEYFPKHIQSRVIGLKR | not soluble |
| MKALCLLLLPVLGLLVSSKTLCSMEEAINERIQEVAGSLIFRAISSIGLECQSVTSRGDLATCPRGFAVTGCTCGSACGSWDVRAETTCHCQCAGMDWTGARCCRVQPLEHHHHHH | not soluble |
| MKASVRWVECPRDAWQGFSRFIPTEEKVAFLNELLEAGFAHLDLTSFVSPKWVPQMQDAEEVLKALPPPNGRTYLAIVANEKGLERALAAPNLTHVGYPFSLSETFQQRNTNRSIEASWPLVGAMVERTEGRLGLVVYLSMAFGNPYGDPWSVEAVLEALARLKEMGVREIALADTYGVAEPERIHEVLKAAVARFGPEGLGAHLHARPEGALAKVEAVLAAGVTWLEGALAGVGGCPFAGDELVGNLPTEVVLPHLEKRGLATGVDLSRLPLLAEEAARLKALYA | soluble |
| MKAVYPGSFDPITLGHVDIIKRALSIFDELVVLVTENPRKKCMFTLEERKKLIEEVLSDLDGVKVDVHHGLLVDYLKKHGIKVLVRGLRAVTDYEYELQMALANKKLYSDLETVFLIASEKFSFISSSLVKEVALYGGDVTEWVPPEVARALNEKLKEGKR | not soluble |
| MKCSWREGNKIQLLENGEQYYPAVFKAIGEAQERIILETFIWFEDNVGKQLHAALLAAAQRGVKAEVLLDGYGSPDLSDEFVNELTAAGVVFRYYDPRPRLFGMRTNVFRRMHRKIVVIDARIAFIGGLNYSAEHMSSYGPEAKQDYAVRLEGPIVEDILQFELENLPGQSAARRWWRRHHKAEENRQPGEAQVLLVWRDNEEHRDDIERHYLKMLTQAQREVIIANAYFFPGYRFLHALRKAARRGVRIKLIIQGEPDMPIVRVGARLLYNYLVKGGVQVFEYRRRPLHGKVALMDDHWATVGSSNLDPLSLSLNLEANVIIHDRHFNQTLRDNLNGIIAADCQQVDETMLPKRTWWNLTKSVLAFHFLRHFPALVGWLPAHTPRLTQVDPPAQPTMETQDRVETENTGVNP | not soluble |
| MKDLIIIGAGQAGLTMGYYLKQEGYNFLLLEAGKRVGDSWRNRYDSLQLFTPRSYSSLPGMALIGEKNEFPYKDEIATYLEEYARHFQLPVQLQTEVLKIKKEKEIFELHTPTEILQTKKVIIASGAFQQPFIPSVSANLSSHIFQIHSSQYKSPSQIPKGKVLVVGGGNSGMQIAVELAKTHEVTVSISHPLTFLPLQLFGKSIFNLLEKVGLLYAEINTKRGRWFQKRKDPIFGFEGKKLIRNGAIKLQEKVVSASRNNIMFQNGDTYSAESIIWSTGFVQNYNWIEIEQAVNEKGFPNHIKGISPVKGLYYIGLPWQSQRGSALICGVGKDAEYVLSEIKKIDQLEHHHHHH | soluble |
| MKDNERRILLGRVVGGFGLRGEIKIESWTEPRDAIFRYQPWLLRSPTGTESMLNGARGYETGKRLIATFPGINDRNGVEAICGTEIYVPRSALPPPHPDEYYWVDLEGLQVHTLEGVVLGSVSHLFSNGANDVIVIHGERERLIPFVQPDYVKSVDFEAERIVVDWDPEFLEHHHHHH | soluble |
| MKDPRIEKLAYNLINYSIRLQKGEKVLIENFGLQKELVTALVKEAYAAGGFPFVSLKDHQVDRSLLMGATEEHFEQIAAYEASVMKDMDAYIGLRSGDNINEQADVPSERMKVHGQTVGKKVHRDIRVPKTRWVVLRYPNASMAQLAKMSTEAFEDFYFEVCNLDYGKMDKAMDSLVTLMNKTDKVRLTGPGTDLTFSIKDIPAIKCSGHLNIPDGEVYSAPVRDSVNGTVSYNTPSPYNGYTFENVQLKFENGQIVEATANDSERINKIFDTDEGARYVGEFAIGVNPYILHPMGDILFDEKIDGSFHFTPGQAYDDAWNGNNSNIHWDLVCIQRPEYGGGEIYFDDVLIRKDGRFVVPELEALNPENLK | not soluble |
